Reference: article PMC12910678 (Nature, 2021)

Target: SARS-CoV-2 RBD (residues 319-591) (SARS-CoV-2, Wuhan-Hu-1 (MN908947), UniProt P0DTC2)
Assay: SPR

B1: C121 IgG (antibody, V domains shown)
VH: not shown
VL: QSALTQPASVSGSPGQSITISCTGTSSDVGSYNLVSWYQQHPGKAPKLMIYEGSKRPSGVSNRFSGSKSGNTASLTISGLQAEDEADYYCCSYAGSSTLVFGGGTKLTVL
- binding result: binds
